According to patent US7060670B1, “Stereoselective antifibrillogenic peptides and peptidomimetics thereof” (Neurochem (International) Limited, priority 1999, dated 2006):
Entries after “also recorded” stand apart in the source; their conditions may differ. Non-standard residues stand in square brackets, D forms with d. No end group written: not given here.

Legend:
[1] = target: T1, Aβ(1–40) (Homo sapiens, UniProt P05067); assay: thioflavin T fluorescence assay for fibrillogenesis of Aβ(1–40); format: biochemical; settings: for inhibition of [L]-Aβ (1–40) assembly/fibrillogenesis compared with the opposite stereoisomer: FIG. 2, all-[L] Aβ (1–40); for Order Of Potency of Peptide Inhibitors, Tested at 20 μM / Order Of Potency of Peptide Inhibitors, Tested at 80 μM: rank, 1 = strongest activity, 11 = weakest, Aβ(1–40) 20 μM, by first appearance of fluorescence over 5-90 hours; for Order Of Potency of Peptide Inhibitors, Tested at 20 μM: peptide 20 μM; for Order Of Potency of Peptide Inhibitors, Tested at 80 μM: peptide 80 μM; for concentration required to give an equivalent inhibition: all-[D] versus all-[L] stereoisomer
T1 construct: Aβ (1–40) 95% purity (American Peptide Company); purchased American Peptide Company, Inc 62-0-78
T1 sequence (P05067 672-711 limits assumed): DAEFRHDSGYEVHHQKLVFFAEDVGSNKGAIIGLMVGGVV
Description: The thioflavin T fluorescence assay for fibrillogenesis is based on the principle that the fluorescent dye, thioflavin T, binds specifically to fibrillar, but not to unaggregated Aβ peptide (LeVine III, H., 1993, Protein Science 2:404–410). Upon binding, thioflavin T develops a characteristic fluorescence (Naiki, H., et al., 1996, Lab. Invest. 74: 374–383) which can be easily detected. The dye is believed to interact with the stacked cross-β pleated sheets, the common structural motif of all amyloids (LeVine III, H., 1995, Amyloid: Int. J. Exp. Clin Invest. 2:1.6). Thioflavin T is widely used to assay the effect of compounds on Aβ peptide fibrillogenesis (Bronfman, P. C., et al., 1995, Neuroscience Lett. 218:201–203). In this assay test compounds are incubated with a solution of Aβ(1–40) (20 μM) containing 10 μM thioflavin T, in 0.02M Tris/0.02M acetate/0.15M NaCl/0.005% azide/pH 7.40 at 37° C. in sealed 384 well microplates. Readings (ex 430 nm/em 485 nm) are taken at various time intervals with a microplate fluorescence reader. An increase in fluorescence signifies the appearance of amyloid or intermediates in the production of amyloid. Inhibitors of fibrillogenesis will lead to less fluorescence production. The results illustrated in Table 1 below, are based on the fluorescence production in the presence of test peptides at either 20 μM or 80 μM concentration, at the time intervals of 5, 19, 45, 67, 77 and 90 hours, compared to a control, buffer alone, without added inhibitory peptide. Protocol Aβ peptide: Aβ (1–40) 95% purity (American Peptide Company, Inc, Sunnyvale, Cal. USA, cat. 62-0-78) is disaggregated in trifluoroacetic acid and filtered through a […] filter, (Whatman Anotop 25 plus, 0.02 μm, Catalogue no. 6809 4102) in hexafluoroisopropanol (HFIP). Solutions of Aβ (1–40) at 600 μM in HFIP are stored at −80° C. Assay mixture: The mixture is prepared as two solutions that are combined upon addition to the 384 well microplate (Corning Costar cat. 3705). • i) Solution A consists of test peptides in 0.02M Tris/0.02M acetate/0.15M NaCl/0.01% azide at pH 7.40 or buffer alone (control), • ii) Solution B consists of Aβ(1–40) 40 μM, thioflavin T 20 μM in 0.02M Tris/0.02M acetate/0.15M NaCl at pH 7.40. This solution is prepared by drying the Aβ peptide under nitrogen and then resuspending this in 0.04M Tris base with 15 minutes sonication. An equal volume of 0.04M acetic acid containing 0.3 M NaCl is added and the solution is adjusted to pH 7.40±0.02. A small volume of 5 mM thioflavin T is added to the solution to give a final 20 μM concentration of thioflavin T. • iii) The microplate is loaded with 40 μL of solution A followed by 40 μL of solution B which gives a final 20 μM Aβ(1–40), 10 μM thioflavin T, and either 20 μM, 80 μM or 100 μM test compound in 0.02M Tris/0.02M acetate/0.15M NaCl/0.005% azide, pH 7.40. The plate is sealed and loaded into the microplate fluorescence reader. Fluorescence measurement data analysis: The HTS-7000 Bio Assay Reader, Perkin Elmer, is used to perform kinetic runs of about 5 days. Readings were taken at various time intervals, 5, 19, 45, 67, 77 and 90 hours, with one minute shaking before each reading. Bandpass filters used were: excitation 430 nm, emission […]. Calculations The rank order of efficacy of the peptides is determined by observing which peptides allow the appearance of fluorescence, above the background level, first. For example in the presence of buffer control alone, fluorescence appears earlier than when any of the peptides is present.

[2] = tested on: fetal rat primary cortical neurons; assay: propidium iodide assay on primary cortical neurons with Aβ; format: cell-based; settings: FIG. 7; compared to Congo red and Aβ alone; 3 days; listed as all-[D]-Lys-Leu-Val-Phe-Phe-Ala
Method: FIG. 7 uses the propidium iodide assay on primary cortical neurons. Briefly, fetal rat primary cortical neurons are isolated and cultured according to Durkin, J. P. et al., J. Neurochem., 66:951–962, 1996. Neurons are plated in a 48 well microplate. 7 days after plating the neuronal culture media is supplemented with B27 (Life Technologies, Data sheet form No. 3755). A mixture of Aβ and test peptide is added to the cortical neurons for 3 days at 37° C. and 5% CO2.
Cell viability is then visually assessed as the proportion of phase-bright cells that exclude propidium iodide, since only dead cells take up propidium iodide.

[3] = target: T2, IAPP (Homo sapiens, UniProt P10997); assay: IAPP fibril formation (thioflavin T assay, circular dichroism, electron microscope); format: biochemical; settings: circular dichroism and thioflavin T assay
T2 sequence (P10997 34-70 limits assumed): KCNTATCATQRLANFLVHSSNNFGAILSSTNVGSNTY
Description: Other amyloidogenic peptides such as IAPP, have also been tested.
The full-length IAPP is 37 amino acids and the β-sheet region is the 20–29 sequence. The 20–29 sequence is critical for forming β-sheet and has been previously shown to be a key region in modulating IAPP aggregation and folding.
Hexapeptides spanning the 20–29 region (Ser-Asn-Asn-Phe-Gly-Ala-Ile-Leu-Ser-Ser) of the IAPP protein were synthesized and tested for their ability to prevent fibril formation as determined by circular dichroism and the thioflavin T assay. […] These peptides (Ser-Asn-Asn-Phe-Gly-Ala- and Asn-Asn-Phe-Gly-Ala-Ile) were directed towards the central core of the 20–29 region.

[4] = tested on: 125I-LBMP1620; settings: peptide synthesized by SPOT technique; cited from earlier work
[5] = tested on: SH-SY5Y human neuroblast cell line; assay: MTT cytoprotection assay, Aβ (1–40) toxicity on SH-SY5Y cells; format: cell-based; settings: FIG. 6, 100 μM test peptide, listed as all-[D]-Lys-Lys-Leu-Val-Phe-Phe-Ala
Method: FIG. 6 uses the MTT assay on SH-SY5Y cells.
A SH-SY5Y human neuroblast cell line (American Type Culture Collection, cat. CRL-2266) is cultured according to technical specifications. Monomerized Aβ (1–40) is prepared using trifluoroacetic acid and hexafluoroisopropanol, in the same way already described for the thioflavin T fluorescence assay. Monomerized Aβ at various concentrations in TANA buffer (0.02 M TRIS base pH 7.4, 0.02M acetate, 0.15 M NaCl) is added to 100 μM test peptide and the mixture is incubated for 24 hours at 37° C. with agitation, in order to allow polymerization to occur. Cells are adhered to a 96-well microplate for 2 hours at 37° C. and 5% CO2 before the Aβ-peptide mixture, or buffer alone (control), is added. The microplate is gently agitated and incubated for 20–24 hours at 37° C. and 5% CO2. Cell viability is determined by a MTT-based colorimetric assay. The MTT assay (Boehringer Mannheim, Cell Proliferation Kit 1) is based on the principle that the yellow tetrazolium salt MTT is cleaved in metabolically-active cells to produce purple formazan crystals. The formazan crystals are solubilized and the resulting colored solution is quantified using a scanning multiwell spectrophotometer (ELISA reader, Absorbance A560 nm). Cellular toxicity was calculated as follows: […]

[6] = target: Aβ (Homo sapiens, UniProt P05067); assay: Aβ-NBD environmental probe fibrillogenesis assay; format: biochemical
Sequence of Aβ (P05067 672-711 limits assumed): as the sequence (P05067 672-711 limits assumed) above

[7] = target: T3, Aβ40 (Homo sapiens, UniProt P05067); assay: CD spectrum of Aβ40 incubated with peptide (β-sheet content); format: biochemical
T3 construct: when incubated with Aβ40 under physiological conditions
T3 sequence (P05067 672-711 limits assumed): as the sequence (P05067 672-711 limits assumed) above
Description: It is the understanding of the inventors that this interesting observation will lead to a greater understanding of fibrillogenesis of Aβ40 and Aβ42 peptides and as a result, will provide important information for the design of potent anti-fibrillogenic compounds for Aβ, other amyloidotic peptides such as AA, AL and IAPP for the treatment of diseases such as Alzheimer's, Type II Diabetes and amyloidosis related disorders. The same principle can also be applied to the design of peptide type compounds for the inhibition of binding of various chemokines to the cell surface as well as inhibition of self assembly and cellular adherence of prion proteins.

Substance | Order Of Potency of Peptide Inhibitors, Tested at 20 μM [1] | Order Of Potency of Peptide Inhibitors, Tested at 80 μM [1] | also measured
Lys-Leu-Val-Phe-Phe-Ala [(D) KLVFFA] ([dK][dL][dV][dF][dF][dA]) | 3 (D) KLVFFA | 1 (D) KLVFFA | inhibition of [L]-Aβ (1–40) assembly/fibrillogenesis compared with the opposite stereoisomer ([1]; listed as all [D]-Lys-Leu-Val-Phe-Phe-Ala): more potent inhibitor; inhibition of [L]-Aβ (1–40) assembly/fibrillogenesis compared with the opposite stereoisomer ([1]; listed as all-[D]-Lys-Leu-Val-Phe-Phe-Ala): much more potent inhibitors; cytoprotective activity against Aβ [2]: potent cytoprotective agents; also recorded: potent cytoprotective activity
SNNFGA [hexapeptide from the 20–29 β-sheet region of IAPP] | – | – | blocking of IAPP fibril formation [3]: capable of blocking the formation of IAPP fibrils
AFFVLK [reference compound] | 11 (L) AFFVLK | 11 (L) AFFVLK | –
Lys-Leu-Val-Phe-Phe [(D) KLVFF] | 9 (D) KLVFF | 10 (D) KLVFF | 125I-LBMP1620 binding [4]: failed to bind
NNFGAI [hexapeptide from the 20–29 β-sheet region of IAPP] | – | – | blocking of IAPP fibril formation [3]: capable of blocking the formation of IAPP fibrils
Lys-Lys-Leu-Val-Phe-Phe-Ala [(D) KKLVFFA] ([dK][dK][dL][dV][dF][dF][dA]) | 2 (D) KKLVFFA | 1 (D) KKLVFFA | inhibition of [L]-Aβ (1–40) assembly/fibrillogenesis compared with the opposite stereoisomer [1]: much more potent inhibitors; concentration required to give an equivalent inhibition ([1]; listed as all-[D] stereoisomer peptide): 6.1 µM; potency of all-[D] relative to all-[L] stereoisomer peptide ([1]; from 400 μM all-[L] versus 6.1 μM all-[D]): about 60 times; inhibition of Aβ (1–40) neurotoxicity (cytoprotection) [5]: potent cytoprotective agents; also recorded: more potent inhibitor; potency at lowest concentration tested versus highest concentration of all-[L] peptide ([6]; all-[D] 25 μM versus all-[L] 800 μM): more potent than the highest concentration of the all-[L] peptide; potency of all-[D] relative to all-[L] stereoisomer peptide ([6]; estimate from 25 μM all-[D] versus 800 μM all-[L]): at least 30 times
Lys-Phe-Val-Phe-Phe-Ala ([dK][dF][dV][dF][dF][dA]) [(D) KFVFFA] | 4 (D) KFVFFA | 1 (D) KFVFFA | –
Lys-Ile-Val-Phe-Phe-Ala ([dK][dI][dV][dF][dF][dA]) [(D) KIVFFA] | 1 (D) KIVFFA | 5 (D) KIVFFA | –
Asp-Asp-Asp (DDD; peptide having antifibrillogenic activity and/or neuroprotection) [tripeptide] | – | – | β-sheet content of Aβ40 by CD spectrum after 24 hours incubation ([7]; 24 hours): no trace of β-sheet conformation; β-sheet content of Aβ40 by CD spectrum at time t=0 ([7]; physiological conditions, t=0): slight decrease
Lys-Leu-Val-Phe ([dK][dL][dV][dF]) [(D) KLVF] | 6 (D) KLVF | 9 (D) KLVF | –
KKLVFFA [reference compound] | 10 (L) KKLVFFA | 7 (L) KKLVFFA | concentration required to give an equivalent inhibition [1]: 400 µM
Ala-Phe-Phe-Val-Leu-Lys [(D) AFFVLK] ([dA][dF][dF][dV][dL][dK]) | 5 (D) AFFVLK | 1 (D) AFFVLK | –
Lys-Ala-Val-Phe-Phe-Ala ([dK][dA][dV][dF][dF][dA]) [(D) KAVFFA] | 7 (D) KAVFFA | 6 (D) KAVFFA | –
